# Assay results from patent US10377818B2, “Method of treating glioma” (The Board of Trustees of the Leland Stanford Junior …, priority 2015, dated 2019).
# B1: NLGN3: Recombinant full-length neuroligin-3 (Origene), tested as glioma mitogen (protein, listed as Mus musculus)
# chain: MWLQPSLSLSPTPTVGRSLCLTLGFLSLVLRASTQAPAPTVNTHFGKLRGARVPLPSEILGPVDQYLGVPYAAPPIGEKRFLPPEPPPSWSGIRNATHFPPVCPQNIHTAVPEVMLPVWFTANLDIVATYIQEPNEDCLYLNVYVPTEDGSGAKKQGEDLADNDGDEDEDIRDSGAKPVMVYIHGGSYMEGTGNMIDGSVLASYGNVIVITLNYRVGVLGFLSTGDQAAKGNYGLLDQIQALRWVSENIAFFGGDPRRITVFGSGIGASCVSLLTLSHHSEGLFQRAIIQSGSALSSWAVNYQPVKYTSLLADKVGCNVLDTVDMVDCLRQKSAKELVEQDIQPARYHVAFGPVIDGDVIPDDPEILMEQGEFLNYDIMLGVNQGEGLKFVEGVVDPEDGVSGTDFDYSVSNFVDNLYGYPEGKDTLRETIKFMYTDWADRDNPETRRKTLVALFTDHQWVEPSVVTADLHARYGSPTYFYAFYHHCQSLMKPAWSDAAHGDEVPYVFGVPMVGPTDLFPCNFSKNDVMLSAVVMTYWTNFAKTGDPNKPVPQDTKFIHTKANRFEEVAWSKYNPRDQLYLHIGLKPRVRDHYRATKVAFWKHLVPHLYNLHDMFHYTSTTTKVPPPDTTHSSHITRRPNGKTWSTKRPAISPAYSNENAPGSWNGDQDAGPLLVENPRDYSTELSVTIAVGASLLFLNVLAFAALYYRKDKRRQEPLRQPSPQRGTGAPELGTAPEEELAALQLGPTHHECEAGPPHDTLRLTALPDYTLTLRRSPDDIPLMTPNTITMIPNSLVGLQTLHPYNTFAAGFNSTGLPHSHSTTRV
# Assays:
# Format in all cases: cell-based, human
# [1] = test system: MAPK pathway (phospho-ERK1/2 T202/Y204); assay: Western blot of phospho-ERK1/2 as indicator of MAPK pathway activation; details: NLGN3 50 nM vs aCSF
# Method: A) Western blot analysis of phosphorylated ERK1/2 (Thr202/Tyr204) and total ERK1/2 in SU-pcBGM2 cells after exposure to either aCSF or NLGN3 (50 nM). […] B) Phosphorylated ERK1/2 levels were normalized to total ERK1/2 levels. […] All experiments performed in three biological replicates and analyzed by unpaired two-way Student's t-test. Data presented as mean±SEM. **P<0.01, ***P<0.001. n.s. indicates P>0.05.
# (§1) Endogenous protein levels were determined using Western blot analysis. Briefly, after various treatments, 400,000 SU-pcGBM2 cells were lysed and loaded onto SDS-PAGE gels. Proteins were separated with gel electrophoresis and transferred to a PVDF membrane. Proteins were then probed for various antibodies as described in extended experimental procedures.
# [2] = test system: mTOR (phospho-4E-BP1 T37/46); assay: Western blot of phospho-4E-BP1 as reporter of mTOR activity; details: 50 nM NLGN3 vs aCSF
# Method: Top panel, 4E-P1^T37/46; bottom panel, total 4E-BP1. B) Quantification of p4E-BP1T37/46/4E-BP1 ratio fold change after NLGN3 exposure normalized to aCSF control (unpaired two-tailed Student's t-test). C) 50 nM NLGN3-induced increase in SU-pcGBM2 proliferation index (EdU assay) is blocked by inhibition of PI3K by BKM120 (100 nM). […] All experiments performed in n=3 biological replicates. Data shown as mean±SEM. (See also FIG. 34, Table in FIG. 18.)
# as §1
# Fos mRNA = assay: qPCR of Fos gene expression in pHGG cells; details: 50 nM NLGN3, 1 hour vs vehicle
# Method: (§2) A) Signaling through the PI3K pathway increases in response to NLGN3. Representative Western blot illustrating increased phosphorylation of AKT in response to various concentrations of NLGN3 ranging from 0-50 nM. p-AKT is shown in top panel; total AKT is shown in the bottom panel. B) Quantification of the increased fold change of pAKT/AKT ratio in response to NLGN3 at various doses (oneway ANOVA, F=17.99, P<001; data shown as mean±SEM; *P<0.05, **P<0.01, ***P<0.001 by Tukey's post-hoc tests to further examine pairwise comparisons). Fold change is normalized to blank media (aCSF). (C) Fos mRNA expression increases after 1 hour exposure to […] 50 nM NLGN3 (data shown as mean±SEM; **P<0.01 by unpaired two-tailed Student's t-test). D) NLGN3 mRNA expression increases after 12 hour exposure to 50 nM NLGN3 vs. vehicle in SU-[…] cells. […]
# After various cell treatments (described in extended experimental procedures), RNA was extracted from 500,000 SU-pcGBM2 or SU-[…] cells using TRIzol reagent. cDNA was generated using RT-PCR, and gene expression changes were further probed using quantitative PCR.
# 500,000 SU-pcGBM2 cells were exposed to either aCSF, 50 nM NLGN3 (Origene Technologies, Rockville), 500 nM BKM120 (SelleckChem, Houston, Tex.), 50 nM EGF (Shenandoah, Warwick, R.I.), or a combination of the above treatments. […] Differential expression was determined using the delta CT method. […]
# [3] = test system: NLGN3 protein in SU-pcGBM2 cells; assay: Western blot of NLGN3 protein expression in glioma cells; details: 50 nM NLGN3 for 12 hours, then 24 hours recovery in fresh media
# Method: as §2, with “cells. Data shown as mean±SEM; *P<0.05 by unpaired two-tailed Student's t-test.” for “cells.”
# (§3) Endogenous protein levels were determined using Western blot analysis. […]
# (§4) Briefly, in FIG. 5, panel A, cells were lysed after 1-hour exposure to 0 nM, 5 nM, 10 nM, or 50 nM recombinant NLGN3 (Origene Technologies, Rockville, Md.), using RIPA buffer and protease inhibitors. […] Protein concentration in the lysate was determined using a Bradford assay. […] Proteins were visualized using Clarity ECL Western Substrate (BioRad, Hercules, Calif.) and quantified using ImageJ.
# [4] = test system: PI3K pathway (phospho-AKT); assay: Western blot of phospho-AKT as indicator of PI3K pathway activity; details: recombinant NLGN3 0-50 nM, 1 hour
# Method: as §2, with “cells. Data shown as mean±SEM; *P<0.05 by unpaired two-tailed Student's t-test.” for “cells.”
# as §3, §4
# [5] = test system: NLGN3 mRNA in SU-pcGBM2 cells; assay: qPCR of NLGN3 gene expression in SU-pcGBM2 cells; details: 50 nM recombinant NLGN3, 12 hour vs vehicle
# SU-pcGBM2 cells = assay: EdU incorporation assay, proliferation index of pHGG cells (SU-pcGBM2)
molecule,measurement,setting,value
B1,phospho-ERK1/2 T202/Y204,[1],did not reveal upregulation
same,phospho-4E-BP1 T37/46 relative to total 4E-BP1,[2],increase in phospho-4E-BP1^T37/46 relative to total 4E-BP1
same,Fos gene expression,Fos mRNA,upregulation of Fos gene expression
same,NLGN3 protein expression,[3],Protein expression of NLGN3 following glioma cell NLGN3 exposure was confirmed
same,phospho-AKT levels relative to total AKT,[4],increased phospho-AKT levels relative to total AKT in a dose-dependent manner
same,NLGN3 gene expression,[5],increase in glioma cell NLGN3 gene expression
same,proliferation index,"SU-pcGBM2 cells; pHGG cells exposed to 50 nM NLGN3, 24 h, EdU",0.40±0.01
same,"effect on proliferation index, dose curve","SU-pcGBM2 cells; recombinant NLGN3 0-100 nM, 24 hours","promotes proliferation, matching the mitogenic effect of active CM at low nanomolar concentrations"
same,effect on proliferation index relative to aCSF control,SU-pcGBM2 cells; recombinant candidate proteins at 100 nM for 24 hours,promote glioma cell proliferation
